The values that follow come from US20200231671A1 (E R SQUIBB AND SONS L L C, published 2020).

In general, EC50 refers to the concentration at which the effect is half-maximal.

Experiment [1] concerns the target T1, mouse LAG-3 (cell surface, 3A9 mouse T cell hybridoma) (mouse, UniProt Q61790 24-521).
T1 construct: whole, on cells; also called mLAG-3
T1 sequence (looked up): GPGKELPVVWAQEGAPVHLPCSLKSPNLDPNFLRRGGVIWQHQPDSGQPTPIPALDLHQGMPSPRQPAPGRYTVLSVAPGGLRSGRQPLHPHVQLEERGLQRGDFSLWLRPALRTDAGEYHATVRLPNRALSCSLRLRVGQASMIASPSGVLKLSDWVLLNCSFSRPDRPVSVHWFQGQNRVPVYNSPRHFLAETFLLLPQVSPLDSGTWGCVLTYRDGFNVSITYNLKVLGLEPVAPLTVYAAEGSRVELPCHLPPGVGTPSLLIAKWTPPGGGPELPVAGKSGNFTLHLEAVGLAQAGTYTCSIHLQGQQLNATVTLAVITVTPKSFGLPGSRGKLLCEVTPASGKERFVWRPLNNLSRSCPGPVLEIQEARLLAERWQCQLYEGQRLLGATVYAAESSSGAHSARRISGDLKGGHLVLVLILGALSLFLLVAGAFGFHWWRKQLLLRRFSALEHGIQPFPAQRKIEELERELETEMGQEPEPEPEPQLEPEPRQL
The experiment can be described thus: flow cytometry, 3A9 cells transfected with mouse LAG-3. As for the experimental part: To determine whether the antibodies cross-reacted with mouse LAG-3, similar flow cytometry studies to those described above were performed using as the target cell a mouse T cell hybridoma cell line (3A9) that had been transfected to express mouse LAG-3 on its cell surface, followed by FACS analysis to detect antibody binding.

In experiment [2] the target is T2, human LAG-3 (cell surface) (human, UniProt P18627 23-525).
T2 construct: whole, on cells; also called CHO-human LAG-3
T2 sequence (looked up): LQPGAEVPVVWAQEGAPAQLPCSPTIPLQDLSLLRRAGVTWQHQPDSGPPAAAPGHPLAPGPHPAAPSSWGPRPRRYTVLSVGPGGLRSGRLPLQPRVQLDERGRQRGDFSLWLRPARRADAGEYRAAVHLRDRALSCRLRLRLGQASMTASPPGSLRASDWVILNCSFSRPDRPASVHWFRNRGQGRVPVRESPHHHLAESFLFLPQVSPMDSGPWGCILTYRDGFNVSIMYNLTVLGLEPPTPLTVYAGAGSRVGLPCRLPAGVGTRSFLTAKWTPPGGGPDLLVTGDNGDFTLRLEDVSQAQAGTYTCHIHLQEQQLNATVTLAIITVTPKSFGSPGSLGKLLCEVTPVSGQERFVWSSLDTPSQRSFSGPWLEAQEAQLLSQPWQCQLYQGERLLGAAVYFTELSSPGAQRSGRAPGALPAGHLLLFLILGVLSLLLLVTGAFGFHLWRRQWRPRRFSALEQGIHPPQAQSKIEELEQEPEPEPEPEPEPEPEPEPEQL
Briefly: flow cytometry, activated human CD4+ T cells. As to the method:
To test the ability of the antibodies to bind to cell surface LAG-3 protein, the antibodies were incubated with a CHO cell line that had been transfected to express human LAG-3 on the cell surface. The 25F7, 26H10, 25E3, 8B7, 11F2 and 17E5 monoclonal antibodies were serially diluted with cold lx PFAE buffer (1×PBS+2% FBS, 0.02% sodium azide, 2 mM Na EDTA). For the binding reaction, 50 μl of diluted antibody solution was added to a 50 μl cell suspension containing 2×10⁵ cells and the mixture was incubated on ice for 30 minutes. The cells were then washed two times with 1×PFAE buffer. A 1:100 dilution of FITC-labeled goat anti-human kappa light chain antibody (Bethyl Laboratories, Inc., Cat. # A80-115F) was added and the mixture was incubated for 30 minutes at 4° C., followed by washing twice with cold 1×PFAE buffer. After the final wash, 150 μl of cold 1×PFAE containing 10 μg/mL propidium iodide (Roche Applied Science, Cat #1 348 639) was added to each solution and analysis of antibody binding was carried out by flow cytometry using a FACScalibur flow cytometer (BD Bioscience).
To test the ability of the antibodies to bind to native human LAG-3 on the surface of activated human T cells, resting CD4⁺ T cells were isolated from purified peripheral blood mononuclear cells and subjected to three days of stimulation with a combination of anti-CD3 and anti-CD28 antibodies affixed to polystyrene beads. The 25F7, 8B7 and 26H10 monoclonal antibodies were serially diluted with cold 1×PFAE buffer (1×PBS+2% FBS, 0.02% sodium azide, 2 mM Na EDTA). For the binding reaction, 50 μl of diluted antibody solution was mixed with 50 μl of PE-labeled anti-human CD4 (BD Bioscience, Cat # 555347). Activated T cells were processed by the same protocol described above. The analysis of antibody binding was conducted as described above.
(In general: Flow cytometry measures light scatter and fluorescence of single cells or particles in a stream.)

Experiment [3] addresses T3, rhesus monkey LAG-3 full length extra loop peptide (rhesus monkey).
T3 construct: Used in a 'similar peptide ELISA'; Biotinylation is not restated for this peptide; also called Rhesus Extra Loop
T3 peptide: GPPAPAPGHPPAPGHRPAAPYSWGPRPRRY
Briefly: ELISA on rhesus full length extra loop peptide. As for the experimental part:
To further examine binding of these antibodies to the extra loop peptide region, additional ELISA assays were performed. In an ELISA assay using the human full-length extra loop peptide (SEQ ID NO: 79), EC₅₀ values for binding were determined for 25E3, 25F7 and 8B7. Additionally, a similar peptide ELISA was conducted using the full length extra loop peptide sequence from rhesus monkey LAG-3, having the sequence […] (SEQ ID NO: 90), and EC₅₀ values for binding were determined for 25F7 and 8B7. […] Moreover, antibodies 25F7 and 8B7 also bind to the rhesus LAG-3 extra loop peptide region, albeit less well compared to the human sequence, which may be due to the species sequence divergence in this polypeptide. The results also confirm that the 26H10 antibody is not capable of recognizing the LAG-3 extra loop peptide.
Background: An ELISA detects its analyte on a solid surface through an enzyme-linked reagent.

B1: 25E3 human monoclonal antibody (antibody, IgG1, V domains shown)
VH: EVQLVESGGGVVRPGGSLRLSCAASGFTFDDYGMSWVRQAPGKGLEWVSGINWNGGSTYYADSVKGRFTISGDNAKNSLYLQMNSLRAEDTALYYCTTGGYWGQGTLVTVSS
VL: AIQLTQSPSSLSASVGDRVTITCRASQGIRSALAWYQQKPGKAPKLLIYDASSLESGVPSRFSGSGSGTDFTLTISSLQPEDFATYYCQQFNSYPYTFGQGTKLEIK
As for B1, the binding result in experiment [1] was “no binding”.

B2: 25F7 human monoclonal antibody (antibody, IgG1, V domains shown)
VH: QVQLQQWGAGLLKPSETLSLTCAVYGGSFSDYYWNWIRQPPGKGLEWIGEINHNGNTNSNPSLKSRVTLSLDTSKNQFSLKLRSVTAADTAVYYCAFGYSDYEYNWFDPWGQGTLVTVSS
VL: EIVLTQSPATLSLSPGERATLSCRASQSISSYLAWYQQKPGQAPRLLIYDASNRATGIPARFSGSGSGTDFTLTISSLEPEDFAVYYCQQRSNWPLTFGQGTNLEIK
notes: also called 25F7-FITC (IgG1 version)
Turning to B2, the EC50 in experiment [2] was 0.27 to 0.45 nM; in experiment [3], 13.1 nM. The binding result in experiment [1] was “no binding”.

B3: 8B7 human monoclonal antibody (antibody, IgG4, V domains shown)
VH: QVQLQQWGAGLLKPSETLSLTCAVYGGSFSGYYWSWIRQPPGKGLEWIGEINHRGNTNCNPSLKSRVTISGDTSKKQFALKLNSVTAADTAVYYCARGYDILTGYYEDSWGPGTLVTVSS
VL: EIVLTQSPATLSLSPGERATLSCRASQSVSSYLAWYQQKPGQAPRLLIYNASNRATGIPARFSGSGSGTDFTLTISSLEPEDFAVYYCQQRSNWPLTFGGGTKVEIK
notes: also called 8B7-FITC
On to B3, for which the EC50 is 0.69 to 1.8 nM in experiment [2] and 0.6 nM in experiment [3]. Moreover, the binding result in experiment [1] is reported as “no binding”.

B4: 26H10 human monoclonal antibody (antibody, IgG1, V domains shown)
VH: QVQLVESGGGVVQPGRSLRLSCAASGFTFSSYGMHWVRQAPGKGLEWVAVIWYDGSNKYYADSVKGRFTISRDNSKNTLYLQMNSLRAEDTAVYYCAREWAVASWDYGMDVWGQGTTVTVSS
VL: not shown
notes: also called 26H10-FITC
In the case of B4, the EC50 in experiment [2] fell in the range of 0.41 to 0.84 nM. The binding result in experiment [3] and in experiment [1] was “no binding” throughout.
